According to the supplement of paper PMC10567573:

B1: ZNF263 (parent)
chain: CSECGESFSRSSRLMSHQRTHTG
B2: ETS1 (parent)
chain: FSEPSFITESYQTLHPISSEELLS

Variants of: B1
Assay: protein stability index of a GFP-peptide fusion (GPS, HEK-293T) (PSI 1-6); higher = more stable
Conditions: c terminus: native
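Note: lentivirally expressed fusions sorted by FACS into six bins by GFP to DsRed ratio, PSI derived from sequencing read proportions per bin multiplied by bin number.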

Protein stability index: each site, then its substitutions
G23: T 4.04 | R 4.2 | Y 3.29 | W 3.79 | Q 4.16 | S 4 | V 3.56 | P 4.52

Variants of: B2
Assay: as above
Conditions: c terminus: a fixed tail appended

Protein stability index, by site and new letter:
E9: H 2 | W 2.06 | D 1.88 | S 2.25 | F 2.58 | Q 2.02 | N 1.62 | K 1.97 | R 2.24 | I 2.57 | V 2.05 | T 1.94 | L 1.5 | A 1.76
S2: N 3.37 | L 1.49 | Y 2.62 | Q 1.65 | V 2.42 | R 2.66 | T 1.95 | H 2.46 | I 3.17 | G 2.63 | C 2.38 | M 1.72 | F 2.26 | D 4.15
E3: R 2.25 | K 2.05 | C 1.7 | N 1.87 | L 1.81 | F 1.6 | W 1.5 | Y 2.23 | A 2.37 | S 2.21 | M 1.9 | V 2.5 | G 2 | I 1.77
S5: M 2.37 | T 2.1 | G 2.09 | P 2.66 | R 2.63 | W 2.11 | D 2.51 | E 2.35 | F 2.26 | C 1.69 | N 2.34 | Q 1.75 | K 2.14
Q12: I 1.58 | K 1.85 | F 1.98 | G 1.84 | T 1.59 | A 2.1 | E 2.27 | M 1.95 | H 2.05 | N 2.26 | L 2.45 | V 1.62 | Y 1.56
T8: Y 2.17 | A 2.29 | S 2.38 | D 3.47 | F 1.95 | E 3.4 | K 2.32 | N 2.91 | H 2.04 | M 1.78
I17: K 2.36 | F 1.84 | C 1.74 | V 2.14 | Y 2.03 | N 2.34 | D 2.12 | R 2.59 | P 2.34 | S 2.14 | M 1.78 | W 2.06 | H 1.76
T13: I 1.93 | W 2.54 | A 2.16 | M 1.28 | G 1.9 | R 1.61 | Q 2.4 | V 2.21 | D 2.23 | K 1.93 | E 2.07
H15: Q 2.29 | I 2.03 | M 1.96 | W 1.67 | Y 1.51 | V 2.49 | L 1.99 | K 2.33 | E 2.12 | R 2.82 | F 1.95 | C 2.17 | G 1.75
P4: L 2.03 | R 2.13 | T 2.65 | C 2.2 | Y 2.2 | D 3.65 | N 2.99 | F 1.92 | W 2.17 | K 2.45 | E 3.19 | V 1.49 | S 2.39
S18: E 2.18 | Q 2.3 | C 2.2 | A 1.93 | L 1.99 | F 1.79 | T 1.97 | K 1.49 | P 2.08 | D 2.33 | R 2.19 | Y 2.24 | I 1.83 | W 1.38 | H 2.35 | M 2 | G 1.8 | N 2.04
L23: I 1.52 | K 2.83 | E 2.44 | Q 2.59 | H 2.61 | D 2.47 | F 2.38 | C 1.97 | R 2.16 | P 2.14 | W 1.81 | V 2.06 | G 1.98 | T 2.29
Y11: G 2.57 | C 1.67 | V 1.78 | D 2.96 | Q 2.57 | T 2.3 | E 2.95 | S 2.2 | K 2.81 | W 1.34 | I 2.04 | M 2.02 | L 1.71
L14: Y 1.55 | F 1.74 | R 2.07 | P 2.1 | D 2.44 | G 2.19 | H 2.35 | K 2.19 | E 2.33 | N 2.08 | S 2.44 | M 1.88 | T 2.5 | W 2.66
S24: Q 2.16 | N 1.79 | I 1.85 | D 2.15 | P 2.04 | C 1.5 | K 2.49 | W 1.56 | G 1.86 | R 1.86 | T 1.99 | A 2.02 | Y 1.79 | H 1.91 | V 1.62
E20: C 1.8 | N 1.7 | K 1.82 | M 2.28 | T 2.08 | V 2.04 | F 1.77 | I 1.78 | P 1.73 | R 2.08 | Q 2.12 | A 1.92 | D 1.63 | W 1.61
L22: K 2.55 | W 1.62 | T 1.97 | D 2.16 | C 1.97 | P 2.42 | E 2.67 | R 2.19 | V 2.31 | I 2.2 | H 2.71 | F 2.01 | A 2.04 | Q 2.19 | N 2.33
F1: Q 4.43 | W 3.67 | H 4.1 | S 4.07 | K 4.06 | N 4.24 | P 4.23 | E 4.56 | T 4.51 | Y 2.1 | L 4.45 | V 4.18 | M 4
S19: K 1.72 | A 1.7 | P 2.11 | I 2.13 | W 2 | D 2.31 | N 2.35 | V 1.84 | Y 1.7 | G 1.99 | C 1.78 | E 2.46 | F 1.88 | L 1.81 | H 1.94 | M 2.19 | R 2.24 | Q 2.21
P16: D 1.81 | K 1.88 | N 1.89 | R 1.69 | G 2.19 | S 2.21 | Y 1.67 | M 1.47 | E 1.95 | F 2.08 | V 2.16 | A 1.68 | Q 2.13 | W 1.17
E21: N 1.85 | A 1.53 | P 1.94 | G 1.91 | Q 2.06 | R 1.96 | V 2.2 | W 1.99 | I 1.81 | L 1.93 | T 2 | Y 1.49 | K 1.84
F6: V 3.23 | H 4.14 | I 3.15 | Y 2.74 | P 4.26 | D 4.8 | R 4.13 | K 3.58 | L 3.22 | M 3.48 | E 4.53 | G 3.85 | N 4.57
I7: P 3.09 | G 2.33 | N 4.24 | L 2.19 | S 3.55 | Q 3.83 | E 4.03 | F 1.68 | V 2.21 | M 2.31 | W 2.33 | A 1.59
S10: F 1.7 | V 2.52 | N 1.99 | M 2.02 | Q 2.35 | E 3 | P 2.62 | W 1.5 | R 2.16 | H 2.06 | Y 1.74 | K 2.25
